Data reported in PMC9411592.
Read-outs that look alike come from different tables or passages of the source.

Columns and labels:
[1] = biological target: N-terminal Flag-tagged LRRC33 with its C-terminal transmembrane domain substituted with that of GARP (WT); assay: flow cytometry on cells; details: n = 3, mean ± s.d., read off a plot
[2] = biological target: N-terminal Flag-tagged LRRC33 with its C-terminal transmembrane domain substituted with that of GARP (WT); assay: flow cytometry on cells; details: for response: n = 3, mean ± s.d., read off a plot
[3] = biological target: L-TGF-β1 WT with the furin cleavage site between LAP and the growth factor replaced with an HA tag (UniProt P01137); assay: flow cytometry on cells
[4] = biological target: L-TGF-β1 C4S/R249A (the 'WT' of the SPR assay) (human); assay: SPR; Biacore T200, 25 °C; L-TGF-β1 (C4S/R249A, or + RGEGATG) immobilised on a CM5 chip by amine coupling; integrin headpieces injected at 20 μl/min in 20 mM HEPES pH 7.5, 150 mM NaCl, 1 mM MgCl2, 1 mM CaCl2; 1:1 Langmuir model
[5] = Expi293F cells co-transfected with L-TGF-β1 and LRRC33, anti-HA staining

Row | Substance | other: percentage of L-TGF-β+ (anti-HA+) subset [2] [%] | response ([2]; parent: est. 21000) [MFI] | other results
1 | L-TGF-β1 WT with the furin cleavage site between LAP and the growth factor replaced with an HA tag (from UniProt P01137) I300L | – | 16000 | –
2 | L-TGF-β1 WT with the furin cleavage site between LAP and the growth factor replaced with an HA tag (from UniProt P01137) K309T | – | 5500 | –
3 | L-TGF-β1 WT with the furin cleavage site between LAP and the growth factor replaced with an HA tag (from UniProt P01137) L303S | – | 25000 | –
4 | L-TGF-β1 WT with the furin cleavage site between LAP and the growth factor replaced with an HA tag (from UniProt P01137) P296A | – | 16000 | –
5 | L-TGF-β1 WT with the furin cleavage site between LAP and the growth factor replaced with an HA tag (from UniProt P01137) W301A | – | – | other: percentage of L-TGF-β+ (anti-HA+) subset [2, 5]: 28.7%; response ([2]; Expi293F cells, parent: est. 22000): 5300 MFI
6 | L-TGF-β1 WT with the furin cleavage site between LAP and the growth factor replaced with an HA tag (from UniProt P01137) W301R | – | 14000 | –
7 | L-TGF-β1 WT with the furin cleavage site between LAP and the growth factor replaced with an HA tag (from UniProt P01137) W301R; K309T; H317L | 12.3 | – | response ([1]; parent: est. 21000): 3500 MFI
8 | L-TGF-β1 WT with the furin cleavage site between LAP and the growth factor replaced with an HA tag (from UniProt P01137) Y307H | – | 28000 | –
9 | L-TGF-β2 WT with HA tag in place of the furin cleavage site (from UniProt P61812) I350H | 44.6 | – | response ([1]; parent: est. 2800): 11000 MFI
10 | N-terminal Flag-tagged LRRC33 with its C-terminal transmembrane domain substituted with that of GARP (WT) Y174R | – | – | other: percentage of L-TGF-β+ (anti-HA+) subset [3, 5]: 23.1%; response ([3]; Expi293F cells, n = 3, mean ± s.d., parent: est. 22000, read off a plot): 4000 MFI
11 | integrin αVβ8-6DLL headpiece (the disulfide-linked loop of β8 substituted by that of β6) (complex) | – | – | Kd [4]: 19.8 nM
12 | αVβ8-IgG1 Fc (heterotetramer of αVβ8 linked by the IgG1 Fc fragment on the C-terminus of β8) (Fc fusion) | – | – | Kd [4]: 5.75 nM

More lines, main results first:

Row | other: percentage of L-TGF-β+ (anti-HA+) subset [2] [%] | response ([2]; parent: est. 21000) [MFI] | Substance | other results
13 | 9.58 | 2800 | L-TGF-β1 WT with the furin cleavage site between LAP and the growth factor replaced with an HA tag (from UniProt P01137) H317I | response ([1]; parent: est. 21000): 3600 MFI
14 | – | 6000 | L-TGF-β1 WT with the furin cleavage site between LAP and the growth factor replaced with an HA tag (from UniProt P01137) H317L | –
15 | – | 15000 | L-TGF-β1 WT with the furin cleavage site between LAP and the growth factor replaced with an HA tag (from UniProt P01137) K309R | –
16 | 15.2 | – | L-TGF-β1 WT with the furin cleavage site between LAP and the growth factor replaced with an HA tag (from UniProt P01137) K309T; H317L | response ([1]; parent: est. 21000): 3400 MFI
17 | – | 26000 | L-TGF-β1 WT with the furin cleavage site between LAP and the growth factor replaced with an HA tag (from UniProt P01137) L303A | –
18 | – | 13000 | L-TGF-β1 WT with the furin cleavage site between LAP and the growth factor replaced with an HA tag (from UniProt P01137) Q306T | –
19 | 21.5 | – | L-TGF-β3 WT with HA tag in place of the furin cleavage site (from UniProt P10600) R328W; T336K; L344H | response ([1]; parent: est. 2700): 5500 MFI
20 | 14.4 | – | L-TGF-β3 WT with HA tag in place of the furin cleavage site (from UniProt P10600) T336K; L344H | response ([1]; parent: est. 2700): 4000 MFI
